# Results as given in CN102952191A.
# B1: 噬菌体展示的单链抗体ZJL101 (phage-displayed scFv ZJL101; phage clones No. 3 and No. 4, identical inserts) (scFv, not shown: large carriers)
# scFv: MAQVQLVQSGTVVKKPGSSVKVSCKTSGGTLPNHAINWVRQASGQGLEWMGWMSPNTGDTGYARKFQGRVTMTRDTSISTAYMELSSLRSDDTAIYYCATGDPRVGHSWGQGTLVTVSSGGGGSGGGGSGGGGSDIQMTQSPPSLSASVGDRVTITCRASQTIGSHLNWYQQKPGKAPKLLITGASSLQSGVPARFTGSGFGTDFTLTISSLQVEDLATYSCQQTYNTPRTFGQGTKVEIK
# Biological target: 基因重组表达的CD33胞外区 (recombinant CD33 extracellular domain) (human) (UniProt P20138)
# UniProt P20138, sequence (P20138 18-259): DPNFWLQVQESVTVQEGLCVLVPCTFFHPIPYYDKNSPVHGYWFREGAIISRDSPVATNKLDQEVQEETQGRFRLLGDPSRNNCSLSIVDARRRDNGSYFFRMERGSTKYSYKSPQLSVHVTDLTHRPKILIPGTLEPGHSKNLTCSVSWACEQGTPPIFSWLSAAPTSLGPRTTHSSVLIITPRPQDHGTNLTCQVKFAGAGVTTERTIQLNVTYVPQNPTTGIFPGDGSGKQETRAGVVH
# Assay: phage ELISA, CD33-ECD coated, HRP/anti-M13 detection
binder,measurement,value
B1,OD450nm,1.6 OD450nm
